Assay results from paper PMC6755732, “Structural, Biochemical, and In Vivo Characterization of MtrR-Mediated Resistance to Innate Antimicrobials by the Human Pathogen Neisseria gonorrhoeae”.

Key:
MtrR [1] = biological target: T1, MtrR (Neisseria gonorrhoeae, UniProt P39897 1-210); test: fluorescence polarization; 1 mM taurocholate; FP: 20 mM Tris-HCl pH 8.0, 100 mM NaCl, 2.5% glycerol, 1 nM DNA, temperature not stated; EMSA: 20 mM Tris pH 8.0, 200 mM NaCl, 10% glycerol, 1 mM TCEP, 1 ug poly(dI-dC), room temperature, 2% agarose TAE; conditions: protein: recombinant; tags: His6 removed by thrombin; chain copies: 2
MtrR [2] = biological target: T1, MtrR; test: fluorescence polarization; no CAPS; FP: 20 mM Tris-HCl pH 8.0, 100 mM NaCl, 2.5% glycerol, 1 nM DNA, temperature not stated; EMSA: 20 mM Tris pH 8.0, 200 mM NaCl, 10% glycerol, 1 mM TCEP, 1 ug poly(dI-dC), room temperature, 2% agarose TAE; conditions: protein: recombinant; tags: His6 removed by thrombin; chain copies: 2
MtrR [3] = biological target: T1, MtrR; test: fluorescence polarization; 1 mM glycocholate; FP: 20 mM Tris-HCl pH 8.0, 100 mM NaCl, 2.5% glycerol, 1 nM DNA, temperature not stated; EMSA: 20 mM Tris pH 8.0, 200 mM NaCl, 10% glycerol, 1 mM TCEP, 1 ug poly(dI-dC), room temperature, 2% agarose TAE; conditions: protein: recombinant; tags: His6 removed by thrombin; chain copies: 2
MtrR [4] = biological target: T1, MtrR; test: fluorescence polarization; no bile salt; FP: 20 mM Tris-HCl pH 8.0, 100 mM NaCl, 2.5% glycerol, 1 nM DNA, temperature not stated; EMSA: 20 mM Tris pH 8.0, 200 mM NaCl, 10% glycerol, 1 mM TCEP, 1 ug poly(dI-dC), room temperature, 2% agarose TAE; conditions: protein: recombinant; tags: His6 removed by thrombin; chain copies: 2
MtrR(W136L) = MtrR(W136L) (Neisseria gonorrhoeae, UniProt P39897 1-210, W136L); test: fluorescence polarization; no bile salt; nM Kd within 5-fold of WT (137, 184 or 187 nM, assignment unclear); FP: 20 mM Tris-HCl pH 8.0, 100 mM NaCl, 2.5% glycerol, 1 nM DNA, temperature not stated; EMSA: 20 mM Tris pH 8.0, 200 mM NaCl, 10% glycerol, 1 mM TCEP, 1 ug poly(dI-dC), room temperature, 2% agarose TAE; conditions: protein: recombinant; tags: N-terminal His6 removed by TEV; chain copies: 2
MtrR(R176A) = MtrR(R176A) (Neisseria gonorrhoeae, UniProt P39897 1-210, R176A); test: as above; conditions: protein: recombinant; tags: N-terminal His6 removed by TEV; chain copies: 2
MtrR(R176E) = MtrR(R176E) (Neisseria gonorrhoeae, UniProt P39897 1-210, R176E); test: as above; conditions: protein: recombinant; tags: N-terminal His6 removed by TEV; chain copies: 2

B1: mtrC (mtrCDE) operator 27-mer, fluorescein (dsDNA)
DNA 1: TTTTTATCCGTGCAATCGTGTATGTAT
DNA 2: ATACATACACGATTGCACGGATAAAAA
- Kd (MtrR [1]): 20 ± 6 nM
- Kd (MtrR [2]): ~3.6 nM
- Kd (MtrR [3]): 21 ± 0.8 nM
- Kd (MtrR [4]): 18 ± 3 nM
- binding result (MtrR(W136L)): binds
- binding result (MtrR(R176A)): binds
- binding result (MtrR(R176E)): binds
